According to patent publication US9822148B2, “EGFR-binding peptide” (HOYA CORPORATION, priority 2012, dated 2017):
Where no end group is shown, it is not given here. The star is where a group is joined. FITC = O=C1OC2(c3ccc(O)cc3Oc3cc(O)ccc32)c2ccc(NC(=S)*)cc21; Ahx = NCCCCCC(=O)O

Columns and labels:
[1] = molecular target: T1, rhEGFR (Homo sapiens, UniProt P00533); test: Competition test between phage and synthetic peptide on solid phase rhEGFR; assay type: binding; conditions: for binding of the I-1010 phage to a rhEGFR (ratio of an input titer/output titer) on adding the peptide: peptide added at each concentration, up to 100 μM
T1 construct: purchased R&D Systems
Description: A rhEGFR that is a target protein was added to a 96-well microplate to be 1 μg/well, and stood still at 4° C. overnight to be thus formed into a solid phase. A protein solution was removed, 300 μl of a blocking buffer was added and the mixture was incubated at 37° C. for 1 hour to thus block the wells. After removal of the blocking buffer, the wells were washed three times with 200 μl of 0.5% TBST washing solution, and finally 100 μl of 0.5% TBST was added thereto. […] A reaction only of the I-1010 phage without adding both of the peptides was employed as a control. […] In the reaction, the mixture was gently shaken at room temperature for 1 hour. The reaction solution was removed and the wells were washed with 200 μl of 0.5% TBST ten times. 100 μl of 0.2 M glycine-HCl (pH 2.2) was then added to the wells and stirred by pipetting, thereafter gently shaking at room temperature for 10 minutes. The eluate was collected to a microtube from the wells and added with 15 μl of 1M Tris-HCl (pH 9.1) to be neutralized and a target binding phage solution was thus obtained. The binding ability of the collected phage was examined by a measurement of a titer.

[2] = test system: A-431 cells; test: In vitro imaging with FITC labeled peptide, confocal microscope, A-431 cells; assay type: cell-based, human; conditions: 100 μM FITC labeled peptide, 37° C., 1 hour
Description: A-431 cells were inoculated in a glass bottom dish to be 20×10^4 cells/dish and MCF7 cells were inoculated in a glass bottom dish to be 75×10^4 cells/dish, and cultured at 37° C. in the condition of CO2 for 24 hours. After culturing each kind of the cells for a specified time, EGF was added to have a concentration of 100 ng/mL and the mixture was cultured for 6 days. Thereafter, the culture solution in the dish was removed and washed with 1000 μL of a growth medium at 37° C. ten times. An aminocaproic acid linker was connected to an N terminal of a peptide and the peptide in which FITC was labeled in the opposite side of the connected linker (Pep055-F, Pep032-F ([…] (peptide irrelevant to binding to EGFR): SEQ ID No. 54)) (purity 80.6%, HPLC grade, AnyGen, Korea) was prepared to be 100 μM in a growth medium, and 1 mL of the medium was added and incubated at 37° C. for 1 hour. A staining fluid was removed and washed with 1 mL of a growth medium at 37° C. three times and thereto was finally added 1 mL of the medium. For observation, fluorescent observation was carried out by irradiating an exciting light laser with a wavelength of 488 nm using a confocal microscope (Leica SP2).

[3] = I-1010 phage 1×10^10 PFU, FIG. 6

Substance	binding of the I-1010 phage to a rhEGFR (ratio of an input titer/output titer) on adding the peptide [1, 3]	stainability of A-431 cells [2]	other results
Pep055: synthetic peptide obtained by artificially synthesizing the I-1010 phage displayed peptide (SEQ ID No. 2) (WHLSDLWQNAWH; I-1010)	inhibited concentration-dependently	–	peptide concentration from which the ratio of an input titer/output titer of the I-1010 phage dropped [1, 3]: ≥ 1 µM
Pep055-F: Pep055 with an aminocaproic acid linker at the N terminal, labeled with FITC ({FITC-Ahx}-WHLSDLWQNAWH)	–	Staining of the cytoplasm of the A-431 cells was observed	–
Pep056: synthetic peptide (SEQ ID No. 4) of the I-1012 phage displayed peptide (FHDWLPEVSPPD; I-1012)	–	–	binding of the I-1012 phage to EGFR on adding the peptide ([1]; FIG. 7): inhibit
YLPLWRLSESHM ({FITC-Ahx}-YLPLWRLSESHM) [Pep032-F, reference compound]	–	scarcely stained	–
GAASRTYLHELI (Random peptide) [Pep018, reference compound]	maintained	–	–
Pep057: synthetic peptide (SEQ ID No. 7) of the I-1015 phage displayed peptide (LHQSEWMYVDIH; I-1015)	–	–	binding of the I-1015 phage to EGFR on adding the peptide ([1]; FIG. 8): inhibit
